In patent US20220204629A1 (NEW YORK UNIVERSITY, published 2022):

Legend:
[1] = molecular target: T1, rat galectin-9 CRD2 (rat, UniProt P97840 226-354, limits assumed); assay: bead based binding, rat CRD2
T1 construct: domain: CRD2; Only two short stretches of the rat protein are given; also called CRD2 domain of rat galectin-9; rat gal-9 CRD2

[2] = molecular target: T2, human Galectin-9 CRD2 (residues 218-355) (human, UniProt O00182 218-355, biotinylated in vitro with BirA at the Avitag (where immobilised)); assay: bead based binding, human CRD2
T2 construct: also called human gal-9 CRD2; wild-type Galectin-9 CRD2; not shown: N-terminal hexahistidine tag, Avitag and TEV cleavage site of the pHBT vector
T2 sequence (O00182 218-355 limits assumed): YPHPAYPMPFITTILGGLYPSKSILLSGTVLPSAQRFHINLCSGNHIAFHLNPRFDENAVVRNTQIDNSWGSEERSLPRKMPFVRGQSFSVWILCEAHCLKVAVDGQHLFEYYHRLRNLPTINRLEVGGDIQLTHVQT

[3] = molecular target: T3, cynomolgus monkey galectin-9 CRD2 (cynomolgus monkey, UniProt A0A7N9IHL9 218-355); assay: bead based binding, cynomolgus CRD2
T3 construct: domain: CRD2; Only two short stretches of a macaque protein are given; also called CRD2 domain of cynomolgus galectin-9; primate gal-9 CRD2

[4] = molecular target: human Galectin-9 CRD2 W277A mutant (human, UniProt O00182 218-355, immobilised on streptavidin coated beads (biotinylated)); assay: mutant on streptavidin beads, G9.2-17 titrated
Chain of human Galectin-9 CRD2 W277A mutant (O00182 218-355 W309A): as the sequence (O00182 218-355 limits assumed) above, with W92A counted along it
Method: (§1) FIG. 17 depicts a bar graph showing the results of epitope mapping studies of gal-9 CRD2 using alanine scanning to characterize G9.2-17 binding. Galectin-9 CRD2 mutants were generated using site-directed mutagenesis. Mutants were immobilized onto streptavidin coated beads and G9.2-17 was titrated to generate a saturation curve. KD values were calculated by fitting curves to Michaelis Menton kinetics. ΔΔG values of binding for each mutant versus wild-type galectin shown. Arrows indicate values that are outside the limit of detection for the assay. Higher ΔΔG values represent greater contribution to G9.2-17 epitope. Mutations were mapped onto the surface of gal CRD2 crystal structure (PDB 3nv4).
(§2) To determine the epitope of G9.2-17 on galectin-9 CRD2, we first mutated residues in several positions throughout CRD2 including R239, which is crucial for carbohydrate binding (Zhu et al., 2005). Only one mutation, W277K, decreased G9.2-17 binding. […] To further map the binding patch of G9.2-17, residues that are spatially adjacent to W277 were mutated to alanine and their binding was assessed. W277A and L279A result in complete abrogation of G9.2-17 binding in our assay. […] These residues are located adjacent in space in the beta-sheet, and form a patch on the back side of CRD2 relative to its carbohydrate recognition site.

[5] = molecular target: human Galectin-9 CRD2 L279A mutant (human, UniProt O00182 218-355, immobilised on streptavidin coated beads (biotinylated)); assay: mutant on streptavidin beads, G9.2-17 titrated
Chain of human Galectin-9 CRD2 L279A mutant (O00182 218-355 L311A): as the sequence (O00182 218-355 limits assumed) above, with L94A counted along it
Method: as §1, §2

[6] = molecular target: T2, human Galectin-9 CRD2 (residues 218-355); assay: ELISA, antibody titrated over immobilized human CRD2
[7] = molecular target: T1, rat galectin-9 CRD2; assay: biolayer interferometry, G9.2-17 captured on anti-Fab probes, rat gal-9 CRD2 in solution, global fit
Method: (§3) FIGS. 16A-16D include graphs showing biolayer interferometry analysis to measure binding affinity to human (FIG. 16A), mouse (FIG. 16B), primate (FIG. 16C) or rat (FIG. 16D) gal-9 CRD2. G9.2-17 was captured onto anti-Fab probes and incubated either recombinant human, mouse, primate or rat gal-9 CRD2. Global fit, shown in black line, was used to calculate the dissociation constants. Representative data from triplicate runs shown.

[8] = molecular target: T2, human Galectin-9 CRD2 (residues 218-355); assay: biolayer interferometry, G9.2-17 captured on anti-Fab probes, human gal-9 CRD2 in solution, global fit
Method: as §3

[9] = molecular target: T3, cynomolgus monkey galectin-9 CRD2; assay: biolayer interferometry, G9.2-17 captured on anti-Fab probes, primate gal-9 CRD2 in solution, global fit
Method: as §3

[10] = molecular target: T4, human Galectin-9 CRD1 (residues 1-148) (human, UniProt O00182 1-148, biotinylated in vitro with BirA at the Avitag); assay: bead assay, flow cytometry: biotinylated Galectin-9 CRD1 on streptavidin beads, G9.2-17 human IgG4 titrated
T4 construct: also called CRD1 domain of galectin-9; not shown: Avitag left upstream after thrombin cleavage of the GST fusion (pGEX)
T4 sequence (O00182 1-148): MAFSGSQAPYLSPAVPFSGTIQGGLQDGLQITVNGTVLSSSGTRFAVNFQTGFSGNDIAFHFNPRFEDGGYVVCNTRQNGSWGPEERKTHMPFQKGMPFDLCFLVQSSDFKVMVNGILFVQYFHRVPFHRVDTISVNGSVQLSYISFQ
Text: For further characterization, one clone, […] (a human IgG4 molecule) was screened for CRD specificity. Biotinylated Galectin-9 CRD1 or CRD2 was immobilized onto streptavidin-coated magnetic beads. The beads were blocked with excess biotin, followed by titration of the G9.2-17 human IgG4 antibody. The beads were then stained and quantified via flow cytometry.

[11] = molecular target: T4, human Galectin-9 CRD1 (residues 1-148); assay: bead-based binding assay
Method: The affinities of the antibodies were assessed using a bead-based assay as previously described (Nishikori et al., J Mol Biol, 2012, 424, 391-399) and surface plasmon resonance (SPR). In the bead-based assay, a biotinylated protein (either a Galectin-9 sample or a Fab sample) was immobilized on streptavidin-coated Dynabeads M280 via the biotin-streptavidin interaction. After blocking the excess biotin-binding sites on the beads using unconjugated biotin, binding titration was performed by incubating the second component (i.e., Fab for immobilized Galectin-9 or vice versa), followed by quantification using a dye-labeled neutravidin (ThermoFisher) and flow cytometry analysis. In experiments where the second component is an IgG, a dye-labeled anti-human IgG or anti-mouse IgG antibody was used for detection.
The binding activity of clone G9.1-8m13 is evaluated using conventional methods.

[12] = molecular target: T4, human Galectin-9 CRD1 (residues 1-148); assay: bead based binding

T1 sequence (P97840 226-354 limits assumed): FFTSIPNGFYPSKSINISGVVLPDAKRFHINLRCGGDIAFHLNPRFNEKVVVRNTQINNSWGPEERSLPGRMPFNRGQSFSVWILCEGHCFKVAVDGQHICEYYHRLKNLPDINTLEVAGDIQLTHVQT

B1: G9.2-17 human IgG4 (antibody, V domains shown)
VH: EVQLVESGGGLVQPGGSLRLSCAASGFTVSSSSIHWVRQAPGKGLEWVAYISSSSGYTYYADSVKGRFTISADTSKNTAYLQMNSLRAEDTAVYYCARYWSYPSWWPYRGMDYWGQGTLVTVSS
VL: DIQMTQSPSSLSASVGDRVTITCRASQSVSSAVAWYQQKPGKAPKLLIYSASSLYSGVPSRFSGSRSGTDFTLTISSLQPEDFATYYCQQSSTDPITFGQGTKVEIKR
notes: also called G9.2-17 hIgG4; G9.2-17 IgG4
[1]
  Kd: 0.31 nM
[2]
  Kd: 0.15 nM
[3]
  Kd: 0.31 nM
[4]
  binding result: no binding
[5]
  binding result: no binding
[6]
  Kd: 0.42 nM
[7]
  Kd: 2.71 nM
[8]
  Kd: 0.183 nM
[9]
  Kd: 0.615 nM
[10]
  binding result: no binding (tested: 50 nM)

B2: G9.1-8m13 Fab (Fab, V domains shown)
VH: EVQLVESGGGLVQPGGSLRLSCAASGFTVSSSSIHWVRQAPGKGLEWVAYIYPYSSSSSYADSVKGRFTISADTSKNTAYLQMNSLRAEDTAVYYCARYSTYSSKWVWGMDYWGQGTLVTVSS
VL: DIQMTQSPSSLSASVGDRVTITCRASQSVSSAVAWYQQKPGKAPKLLIYSASSLYSGVPSRFSGSRSGTDFTLTISSLQPEDFATYYCQQSYYDSNPITFGQGTKVEIKR
notes: Fab purified from E. coli; also called purified G9.1-8m13 Fab; 9.1-8mut13
[11]
  Kd: 20.7 nM

B3: G9.1-8m13 mIgG2a (antibody, V domains shown)
VH: B2 VH
VL: B2 VL
notes: also called purified G9.1-8m13 mIgG2a molecule
[11]
  Kd: 0.3 nM

B4: G9.2-17 mIgG1 (antibody, V domains shown)
VH: B1 VH
VL: B1 VL
notes: also called mouse IgG1 version of G9.2-17; mIgG1 G9.2-17
[12]
  binding result: no binding
[1]
  Kd: 0.35 nM
[2]
  Kd: 0.18 nM
[3]
  Kd: 0.3 nM
[6]
  Kd: 0.45 nM
